Experimental data published in US20150140002A1, “USE OF A PCSK9 INHIBITOR TO TREAT […]” (Sanofi, priority 2013, published 2015).
Like-named read-outs stand apart in the source and are kept apart here.

How the values were obtained:
[1] = test system: anti-mAb316P antibodies; experiment: Example 2: anti-mAb316P antibody (ADA) bridging immunoassay and neutralizing antibody assay; assay type: in vivo, human
Description: Other endpoints Anti-MAb316P Antibody Assessments: Anti-mAb316P antibodies included the antibody status (positive/negative) and antibody titers.
Sampling time: Serum samples for anti-mAb316P antibody determination were drawn periodically throughout the study. The first scheduled sample at randomization visit was obtained before IMP injection (predose).
Anti-mAb316P antibody samples were analyzed using a validated non-quantitative, titer-based bridging immunoassay. It involved an initial screen, a confirmation assay based on drug specificity, and a measurement of the titer of anti-MAb316P antibodies in the sample. The lower limit of detection was approximately 1.5 ng/mL.
Samples that were positive in the ADA assay were assessed for neutralizing antibodies using a validated, non-quantitative, competitive ligand binding assay. The lower limit of detection based on a monoclonal positive control neutralizing antibody is 390 ng/mL.

[2] = test system: patients with hypercholesterolemia at moderate cardiovascular (CV) risk; settings: in vivo
Description: The clinical laboratory data consisted of urinalysis and blood analysis, hematology (RBC count, red blood cell distribution width (RDW), reticulocyte count, hemoglobin, hematocrit, platelets, WBC count with differential blood count), standard chemistry (glucose, sodium, potassium, chloride, bicarbonate, calcium, phosphorous, urea nitrogen, creatinine, uric acid, total protein, LDH, albumin, γ Glutamyl Transferase [γGT]), Hepatitis C antibody, liver panel (ALT, AST, ALP, and total bilirubin), and CPK.
Safety endpoints—Vital signs measurement: Vital signs included: HR, systolic and diastolic BP in sitting position.
The safety analysis included all randomized and treated patients. Safety data were analyzed by descriptive statistics.

[3] = test system: patients with primary hypercholesterolemia (heFH and non-FH) who are intolerant to statins; settings: in vivo

For “mAb316P: human anti-PCSK9 antibody; heavy chain SEQ ID NO:5, light chain SEQ ID NO:9; HCVR SEQ ID NO:1, LCVR SEQ ID NO:6”, the anti-drug antibody titers ([1]; all anti-drug antibody-positive patients) was at most 240, the neutralizing anti-drug antibody ([1]; in vivo) was “no neutralizing anti-drug antibody” and the “patients with treatment emergent anti-drug antibodies” value ([1]; in vivo) was 6 (12%) patients (%). For the same molecule, the TEAE class infection [2] was 42.3%, the “Cardiac disorders (SOC)” value [3] was 10 (7.9%) patients (%) and the “Ear and labyrinth disorders (SOC)” value [3] was 8 (6.3%) patients (%). For the same molecule, the “General allergic TEAEs (MedDRA SMQ Hypersensitivity)” value [3] was 12 (9.5%) patients (%), the “Investigations (SOC)” value [3] was 9 (7.1%) patients (%) and the “Psychiatric disorders (SOC)” value [3] was 9 (7.1%) patients (%). For the same molecule, the “Skeletal muscle-related TEAEs (CMQ preferred term)” value [3] was 34 (27.0%) patients (%), the TEAEs [3] was 104 (82.5%) patients (%) and the “Treatment-emergent SAEs” value [3] was 12 (9.5%) patients (%). The “Treatment-emergent injection site reactions (ISRs)” value [3] was 6 (4.8%) patients (%), the Treatment-emergent neurocognitive disorders [3] was 3 (2.4%) patients (%) and the “Treatment-emergent neurologic AEs” value [3] was 11 (8.7%) patients (%). The “Treatment-emergent skeletal muscle-related events resulting in early treatment discontinuation” value [3] was 19 (15.1%) patients (%), the back pain [3] was 4.0% and the “early termination due to musculoskeletal and connective tissues disorders SOC events” value [3] was 20 [15.9%] patients [%]. The fatigue [3] was 4.8%, the headache [3] was 4.8% and the insomnia [3] was 5 (4.0%) reports (%). The muscle spasms [3] was 4.0%, the muscular weakness [3] was 0.8% and the palpitations [3] was 4 (3.2%) reports (%). For the same molecule, the paraesthesia [3] was 3.2%, the “patients who prematurely discontinued study treatment due to a TEAE” value [3] was 23 (18.3%) patients (%) and the “patients who prematurely terminated study treatment due to adverse events” value [3] was 23 (18.3%) patients (%). The “rate of AEs” value [3] was 82.5%, the vertigo [3] was 6 (4.8%) reports (%) and the safety and tolerability ([3]; sc) was “generally safe and well tolerated”.

For `O=C1[C@H](CC[C@H](O)c2ccc(F)cc2)[C@@H](c2ccc(O)cc2)N1c1ccc(F)cc1` [ezetimibe, reference compound], the “patients with treatment emergent anti-drug antibodies” value ([1]; in vivo) was “not observed”, the Influenza ([2]; human) was 3 (5.9) n (%) and the “Cardiac disorders (SOC)” value ([3]; human) was 6 (4.8%) patients (%). The “Ear and labyrinth disorders (SOC)” value ([3]; human) was 4 (3.2%) patients (%), the “General allergic TEAEs (MedDRA SMQ Hypersensitivity)” value ([3]; human) was 9 (7.3%) patients (%) and the “Investigations (SOC)” value ([3]; human) was 7 (5.6%) patients (%). The “Psychiatric disorders (SOC)” value ([3]; human) was 5 (4.0%) patients (%), the “Skeletal muscle-related TEAEs (CMQ preferred term)” value ([3]; human) was 40 (32.3%) patients (%) and the TEAEs ([3]; human) was 100 (80.6%) patients (%). For the same molecule, the “Treatment-emergent SAEs” value ([3]; human) was 10 (8.1%) patients (%), the “Treatment-emergent injection site reactions (ISRs)” value ([3]; human) was 6 (4.8%) patients (%) and the Treatment-emergent neurocognitive disorders ([3]; human) was 2 (1.6%) patients (%). For the same molecule, the “Treatment-emergent neurologic AEs” value ([3]; human) was 4 (3.2%) patients (%), the “Treatment-emergent skeletal muscle-related events resulting in early treatment discontinuation” value ([3]; human) was 23 (18.5%) patients (%) and the back pain ([3]; human) was 5.6%. The “early termination due to musculoskeletal and connective tissues disorders SOC events” value ([3]; human) was 26 [21.0%] patients [%], the fatigue ([3]; human) was 3.2% and the headache ([3]; human) was 4.8%. For the same molecule, the insomnia ([3]; human) was 2 (1.6%) reports (%), the muscle spasms ([3]; human) was 7.3% and the muscular weakness ([3]; human) was 1.6%. For the same molecule, the “non-cardiac chest pain (treatment-emergent SAE preferred term)” value ([3]; human) was 4 (3.2%) patients (%), the palpitations ([3]; human) was 2 (1.6%) reports (%) and the paraesthesia ([3]; human) was 0%. For the same molecule, the “patients who prematurely discontinued study treatment due to a TEAE” value ([3]; human) was 31 (25.0%) patients (%), the “patients who prematurely terminated study treatment due to adverse events” value ([3]; human) was 31 (24.8%) patients (%) and the “rate of AEs” value ([3]; human) was 81%. The vertigo ([3]; human) was 2 (1.6%) reports (%).
